Test results published in patent US20210063414A1, “METHODS FOR PREVENTING AND/OR TREATING BONE LOSS CONDITIONS BY MODULATING IRISIN” (Dana-Farber Cancer Institute, Inc., priority 2018, published 2021).

What was measured:
Assay in all cases: Crosslinking/co-immunoprecipitation/mass spectrometry (TMT quantitative proteomics) to identify irisin receptors
Assay type in all cases: binding
[1] = biological target: T1, MLO-Y4 cell surface proteins (Mus musculus, UniProt P48997); conditions: co-precipitated protein Ivl (INVO_MOUSE)
T1 construct: endogenous in cells; host or cells: MLO-Y4
T1 sequence (P48997 1-467): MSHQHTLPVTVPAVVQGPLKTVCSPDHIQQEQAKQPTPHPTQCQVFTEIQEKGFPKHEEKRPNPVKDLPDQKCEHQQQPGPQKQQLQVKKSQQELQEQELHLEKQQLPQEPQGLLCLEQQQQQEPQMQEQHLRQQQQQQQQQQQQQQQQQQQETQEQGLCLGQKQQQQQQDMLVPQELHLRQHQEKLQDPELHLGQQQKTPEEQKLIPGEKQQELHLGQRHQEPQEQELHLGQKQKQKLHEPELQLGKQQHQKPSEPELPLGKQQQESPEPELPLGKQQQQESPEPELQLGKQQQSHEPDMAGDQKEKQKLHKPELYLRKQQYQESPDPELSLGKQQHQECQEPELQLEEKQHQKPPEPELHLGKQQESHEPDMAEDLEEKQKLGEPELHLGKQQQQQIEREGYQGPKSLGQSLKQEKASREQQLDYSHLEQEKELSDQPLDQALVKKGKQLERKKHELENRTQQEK
Outline: (§1)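 Relative protein abundance came from 6-plex TMT MS3 quantitation on an Orbitrap Fusion Lumos, after in-gel trypsin digestion of Coomassie-stained SDS-PAGE lanes. Input was a Ni-NTA pulldown (250 mM imidazole elution) of lysates from murine MLO-Y4 cells. These cells were treated on ice with His-tagged irisin or adipsin (10 nM, 20 min) in serum-free medium, then crosslinked with 1.5 mM DTSSP for 30 min.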

[2] = biological target: T2, MLO-Y4 cell surface proteins (Mus musculus, UniProt Q9CYR0); conditions: co-precipitated protein Ssbp1 (SSBP_MOUSE)
T2 construct: endogenous in cells; host or cells: MLO-Y4
T2 sequence (Q9CYR0 17-152): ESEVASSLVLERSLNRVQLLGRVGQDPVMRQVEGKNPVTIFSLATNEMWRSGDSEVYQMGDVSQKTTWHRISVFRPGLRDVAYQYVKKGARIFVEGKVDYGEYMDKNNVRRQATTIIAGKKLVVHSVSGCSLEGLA
Outline: as §1

[3] = biological target: T3, MLO-Y4 cell surface proteins (Mus musculus, UniProt Q9D3P1); conditions: co-precipitated protein Tchhl1 (TCHL1_MOUSE)
T3 construct: endogenous in cells; host or cells: MLO-Y4
T3 sequence (Q9D3P1 1-638): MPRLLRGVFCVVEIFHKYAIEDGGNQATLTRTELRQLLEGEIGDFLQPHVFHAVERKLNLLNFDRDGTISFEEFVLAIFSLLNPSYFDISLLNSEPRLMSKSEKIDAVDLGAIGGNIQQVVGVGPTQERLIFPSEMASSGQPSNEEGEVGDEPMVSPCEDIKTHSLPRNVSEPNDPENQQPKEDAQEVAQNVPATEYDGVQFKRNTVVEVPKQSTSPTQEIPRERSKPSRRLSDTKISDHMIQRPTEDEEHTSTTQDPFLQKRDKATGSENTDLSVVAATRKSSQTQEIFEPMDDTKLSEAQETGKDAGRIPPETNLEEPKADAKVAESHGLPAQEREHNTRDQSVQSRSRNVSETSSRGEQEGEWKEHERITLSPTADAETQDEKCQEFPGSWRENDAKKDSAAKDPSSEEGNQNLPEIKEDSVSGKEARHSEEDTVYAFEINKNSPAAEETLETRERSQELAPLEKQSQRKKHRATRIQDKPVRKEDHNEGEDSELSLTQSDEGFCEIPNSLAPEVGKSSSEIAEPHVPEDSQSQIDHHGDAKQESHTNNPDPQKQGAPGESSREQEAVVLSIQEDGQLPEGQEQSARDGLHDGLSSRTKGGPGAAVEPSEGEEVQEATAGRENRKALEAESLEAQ
Outline: as §1

adipsin
TMT signal-to-noise ratio [1]: 222.079
TMT signal-to-noise ratio [2]: 432.759
TMT signal-to-noise ratio [3]: 1810.14
